Assay results published in publication PMC2922993.

Biological target: T1, BRAF-HDAC Complex 80 (BHC80)-PHD finger, Q96BD5
T1 chain: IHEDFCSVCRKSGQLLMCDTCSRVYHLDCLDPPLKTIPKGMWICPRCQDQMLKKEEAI
Assay: ITC

Work on ARTKQTARKSTG (modifications not checked) [unmodified H3 peptide] yielded a Kd of 19.6 µM.
